In patent publication US20200079833A1 (AstraZeneca / MedImmune, published 2020):
Starred links: 1 amine or outer side, 2 acyl side, 3 side chain; linkers in the order of their positions; H or OH if unused. Non-standard residues stand in square brackets, D forms with d. Groups on a side chain read outwards from the residue. Primed or numbered codes have the meaning given here. No end group written: not given here. *: point of attachment. γGlu = O=C(O)[C@H](CCC(=O)[*:2])N[*:1]; αMeF = C[C@](N)(Cc1ccccc1)C(=O)O; αMeK = C[C@](N)(CCCCN)C(=O)O; Lauroyl = CCCCCCCCCCCC(=O)*; αMeS = C[C@](N)(CO)C(=O)O; PEG2′ = not defined here; Aib = CC(C)(N)C(=O)O

T1: glucose-dependent insulinotropic peptide (gastric inhibitory polypeptide) receptor (GIPR), primary cAMP assay … (human, UniProt P48546 22-466)
T1 sequence (looked up): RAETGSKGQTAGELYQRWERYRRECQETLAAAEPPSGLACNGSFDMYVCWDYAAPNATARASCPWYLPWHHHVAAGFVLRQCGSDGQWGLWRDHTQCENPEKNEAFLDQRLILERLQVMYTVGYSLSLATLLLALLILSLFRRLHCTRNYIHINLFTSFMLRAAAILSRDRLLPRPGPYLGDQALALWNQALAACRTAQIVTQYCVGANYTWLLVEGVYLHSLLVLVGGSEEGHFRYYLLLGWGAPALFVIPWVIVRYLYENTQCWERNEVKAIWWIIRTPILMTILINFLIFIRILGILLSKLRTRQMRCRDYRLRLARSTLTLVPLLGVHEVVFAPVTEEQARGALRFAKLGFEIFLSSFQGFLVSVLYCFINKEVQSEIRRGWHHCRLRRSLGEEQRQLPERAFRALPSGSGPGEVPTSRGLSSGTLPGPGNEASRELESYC


What follows are binders tested against GLP-1 receptor (GLP-1R), primary cAMP assay cell line (human, UniProt P43220 24-463) (assay: cell-based or functional assay).

Binder | cAMP Primary assay EC50, Mean pM GLP-1R | cAMP Primary assay EC50, n1 | cAMP Primary assay EC50, n2
H[Aib]EGS[αMeF]TSDK([PEG2′-PEG2′-γGlu-Lauroyl])SSYLEGK([PEG2′-PEG2′-γGlu-Lauroyl])AA[αMeK]EFIAFK([PEG2′-PEG2′-γGlu-Lauroyl])VEGG-NH2 [SEQ ID NO: 472] | 287 pM | 0.297 nM | 0.277 nM
H[Aib]EGS[αMeF]TSDV[αMeS]SK([PEG2′-PEG2′-γGlu-Lauroyl])LEK([PEG2′-PEG2′-γGlu-Lauroyl])EAA[αMeK]EFIAK([PEG2′-PEG2′-γGlu-Lauroyl])VVEGG-NH2 [SEQ ID NO: 463] | 82 pM | 0.0695 nM | 0.0944 nM
H[Aib]EGS[αMeF]TSDV[αMeS]SK([PEG2′-PEG2′-γGlu-Lauroyl])LEGK([PEG2′-PEG2′-γGlu-Lauroyl])AA[αMeK]EFIK([PEG2′-PEG2′-γGlu-Lauroyl])FVVEGG-NH2 [SEQ ID NO: 448] | 92.4 pM | 0.0788 nM | 0.106 nM
H[Aib]EGS[αMeF]TSDV[αMeS]SK([PEG2′-PEG2′-γGlu-Lauroyl])LEGEK([PEG2′-PEG2′-γGlu-Lauroyl])A[αMeK]EFIAK([PEG2′-PEG2′-γGlu-Lauroyl])VVEGG-NH2 [SEQ ID NO: 465] | 117 pM | 0.101 nM | 0.133 nM

The next lines start with the values.

cAMP Primary assay EC50, Mean pM GLP-1R | cAMP Primary assay EC50, n1 | cAMP Primary assay EC50, n2 | Binder
246 pM | 0.216 nM | 0.276 nM | H[Aib]EGS[αMeF]TSDV[αMeS]SK([PEG2′-PEG2′-γGlu-Lauroyl])LEGEK([PEG2′-PEG2′-γGlu-Lauroyl])A[αMeK]EFIK([PEG2′-PEG2′-γGlu-Lauroyl])FVVEGG-NH2 [SEQ ID NO: 449]
170 pM | 0.116 nM | 0.224 nM | H[Aib]EGS[αMeF]TSDK([PEG2′-PEG2′-γGlu-Lauroyl])SSYLEGK([PEG2′-PEG2′-γGlu-Lauroyl])AA[αMeK]EFIAK([PEG2′-PEG2′-γGlu-Lauroyl])VVEGG-NH2 [SEQ ID NO: 456]
150 pM | 0.123 nM | 0.176 nM | H[Aib]EGS[αMeF]TSDV[αMeS]SK([PEG2′-PEG2′-γGlu-Lauroyl])LEK([PEG2′-PEG2′-γGlu-Lauroyl])EAA[αMeK]EFIK([PEG2′-PEG2′-γGlu-Lauroyl])FVVEGG-NH2 [SEQ ID NO: 447]
434 pM | 0.399 nM | 0.47 nM | H[Aib]EGS[αMeF]TSDK([PEG2′-PEG2′-γGlu-Lauroyl])SSYLEGEK([PEG2′-PEG2′-γGlu-Lauroyl])A[αMeK]EFIAFK([PEG2′-PEG2′-γGlu-Lauroyl])VEGG-NH2 [SEQ ID NO: 473]

Each binder was assayed against glucagon receptor (GCGR), primary cAMP assay cell line (human, UniProt P47871 26-477) (assay: cell-based or functional assay).
Chain of glucagon receptor (GCGR), primary cAMP assay cell line (P47871 26-477): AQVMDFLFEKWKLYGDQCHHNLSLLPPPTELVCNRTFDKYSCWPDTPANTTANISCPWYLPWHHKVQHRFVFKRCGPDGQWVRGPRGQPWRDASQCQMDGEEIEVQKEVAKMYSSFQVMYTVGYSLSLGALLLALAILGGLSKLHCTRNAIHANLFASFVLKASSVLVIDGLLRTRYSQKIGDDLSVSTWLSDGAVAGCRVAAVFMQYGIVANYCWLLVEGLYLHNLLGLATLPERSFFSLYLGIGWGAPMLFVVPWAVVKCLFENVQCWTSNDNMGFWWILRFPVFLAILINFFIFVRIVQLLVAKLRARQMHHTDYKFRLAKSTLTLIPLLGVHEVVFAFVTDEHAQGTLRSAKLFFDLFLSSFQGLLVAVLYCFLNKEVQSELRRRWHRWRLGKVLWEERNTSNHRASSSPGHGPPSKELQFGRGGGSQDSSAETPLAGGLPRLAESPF

Binder | cAMP Primary assay EC50, n1 | cAMP Primary assay EC50, n2
H[Aib]EGS[αMeF]TSDK([PEG2′-PEG2′-γGlu-Lauroyl])SSYLEGK([PEG2′-PEG2′-γGlu-Lauroyl])AA[αMeK]EFIAFK([PEG2′-PEG2′-γGlu-Lauroyl])VEGG-NH2 [SEQ ID NO: 472] | 19.9 nM | 19.9 nM
H[Aib]EGS[αMeF]TSDV[αMeS]SK([PEG2′-PEG2′-γGlu-Lauroyl])LEK([PEG2′-PEG2′-γGlu-Lauroyl])EAA[αMeK]EFIAK([PEG2′-PEG2′-γGlu-Lauroyl])VVEGG-NH2 [SEQ ID NO: 463] | 20 nM | 20 nM
H[Aib]EGS[αMeF]TSDV[αMeS]SK([PEG2′-PEG2′-γGlu-Lauroyl])LEGK([PEG2′-PEG2′-γGlu-Lauroyl])AA[αMeK]EFIK([PEG2′-PEG2′-γGlu-Lauroyl])FVVEGG-NH2 [SEQ ID NO: 448] | 19.9 nM | 19.9 nM
H[Aib]EGS[αMeF]TSDV[αMeS]SK([PEG2′-PEG2′-γGlu-Lauroyl])LEGEK([PEG2′-PEG2′-γGlu-Lauroyl])A[αMeK]EFIAK([PEG2′-PEG2′-γGlu-Lauroyl])VVEGG-NH2 [SEQ ID NO: 465] | 20 nM | 20 nM

The next lines start with the values.

cAMP Primary assay EC50, n1 | cAMP Primary assay EC50, n2 | Binder
19.7 nM | 19.7 nM | H[Aib]EGS[αMeF]TSDV[αMeS]SK([PEG2′-PEG2′-γGlu-Lauroyl])LEGEK([PEG2′-PEG2′-γGlu-Lauroyl])A[αMeK]EFIK([PEG2′-PEG2′-γGlu-Lauroyl])FVVEGG-NH2 [SEQ ID NO: 449]
10 nM | 20 nM | H[Aib]EGS[αMeF]TSDK([PEG2′-PEG2′-γGlu-Lauroyl])SSYLEGK([PEG2′-PEG2′-γGlu-Lauroyl])AA[αMeK]EFIAK([PEG2′-PEG2′-γGlu-Lauroyl])VVEGG-NH2 [SEQ ID NO: 456]
19.7 nM | 19.7 nM | H[Aib]EGS[αMeF]TSDV[αMeS]SK([PEG2′-PEG2′-γGlu-Lauroyl])LEK([PEG2′-PEG2′-γGlu-Lauroyl])EAA[αMeK]EFIK([PEG2′-PEG2′-γGlu-Lauroyl])FVVEGG-NH2 [SEQ ID NO: 447]
19.6 nM | 19.6 nM | H[Aib]EGS[αMeF]TSDK([PEG2′-PEG2′-γGlu-Lauroyl])SSYLEGEK([PEG2′-PEG2′-γGlu-Lauroyl])A[αMeK]EFIAFK([PEG2′-PEG2′-γGlu-Lauroyl])VEGG-NH2 [SEQ ID NO: 473]

Each binder was assayed against T1, glucose-dependent insulinotropic … (assay: cell-based or functional assay).

Binder | cAMP Primary assay EC50, n1 | cAMP Primary assay EC50, n2
H[Aib]EGS[αMeF]TSDK([PEG2′-PEG2′-γGlu-Lauroyl])SSYLEGK([PEG2′-PEG2′-γGlu-Lauroyl])AA[αMeK]EFIAFK([PEG2′-PEG2′-γGlu-Lauroyl])VEGG-NH2 [SEQ ID NO: 472] | 19.9 nM | 19.9 nM
H[Aib]EGS[αMeF]TSDV[αMeS]SK([PEG2′-PEG2′-γGlu-Lauroyl])LEK([PEG2′-PEG2′-γGlu-Lauroyl])EAA[αMeK]EFIAK([PEG2′-PEG2′-γGlu-Lauroyl])VVEGG-NH2 [SEQ ID NO: 463] | 20 nM | 20 nM
H[Aib]EGS[αMeF]TSDV[αMeS]SK([PEG2′-PEG2′-γGlu-Lauroyl])LEGK([PEG2′-PEG2′-γGlu-Lauroyl])AA[αMeK]EFIK([PEG2′-PEG2′-γGlu-Lauroyl])FVVEGG-NH2 [SEQ ID NO: 448] | 19.9 nM | 19.9 nM
H[Aib]EGS[αMeF]TSDV[αMeS]SK([PEG2′-PEG2′-γGlu-Lauroyl])LEGEK([PEG2′-PEG2′-γGlu-Lauroyl])A[αMeK]EFIAK([PEG2′-PEG2′-γGlu-Lauroyl])VVEGG-NH2 [SEQ ID NO: 465] | 20 nM | 20 nM

More lines, now with the values ahead:

cAMP Primary assay EC50, n1 | cAMP Primary assay EC50, n2 | Binder
19.7 nM | 19.7 nM | H[Aib]EGS[αMeF]TSDV[αMeS]SK([PEG2′-PEG2′-γGlu-Lauroyl])LEGEK([PEG2′-PEG2′-γGlu-Lauroyl])A[αMeK]EFIK([PEG2′-PEG2′-γGlu-Lauroyl])FVVEGG-NH2 [SEQ ID NO: 449]
20 nM | 20 nM | H[Aib]EGS[αMeF]TSDK([PEG2′-PEG2′-γGlu-Lauroyl])SSYLEGK([PEG2′-PEG2′-γGlu-Lauroyl])AA[αMeK]EFIAK([PEG2′-PEG2′-γGlu-Lauroyl])VVEGG-NH2 [SEQ ID NO: 456]
19.7 nM | 19.7 nM | H[Aib]EGS[αMeF]TSDV[αMeS]SK([PEG2′-PEG2′-γGlu-Lauroyl])LEK([PEG2′-PEG2′-γGlu-Lauroyl])EAA[αMeK]EFIK([PEG2′-PEG2′-γGlu-Lauroyl])FVVEGG-NH2 [SEQ ID NO: 447]
19.6 nM | 19.6 nM | H[Aib]EGS[αMeF]TSDK([PEG2′-PEG2′-γGlu-Lauroyl])SSYLEGEK([PEG2′-PEG2′-γGlu-Lauroyl])A[αMeK]EFIAFK([PEG2′-PEG2′-γGlu-Lauroyl])VEGG-NH2 [SEQ ID NO: 473]
